Results: patent US20120021993A1 (AJOU UNIVERSITY INDUSTRY ACADEMIC COOPERATION FOUNDATION, published 2012)

Tests used:
[1] = biological target: T1, human-derived cell death receptor 4, extracellular domain (amino acid residues 1-216), 6xHis tag (human, UniProt O00220 24-239); test: ELISA, coated target, single binder concentration not given, A405
T1 construct: extracellular domain; Expressed in E. coli; biotinylated for sorting and flow cytometry; residues 1-216; also called DR4; TRAIL-receptor 1
Protocol: (§1) In order to measure the affinity and cross reactivity of the anti-DR4, -DR5 and -TNFα protein scaffold variants based on the Kringle domain structure to the target molecules, an enzyme-linked immunosorbent assay (ELISA) was performed. The target molecules DR4, DR5, TNFα and DcR1, DcR2 were attached to a 96 well EIA/RIA plate (COSTARCorning In., USA) by its reaction at 37° C. for 1 hour, and washed three times with 0.1% PBST (0.1% Tween20, pH 7.4, 137 mM NaCl, 10 mM Phosphate, 2.7 mM KCl, SIGMA-ALDRICH Co., USA) for 10 minutes. The target molecules were attached for 1 hour to a 96 well EIA/RIA plate in 1% PBSB (1% BSA, pH 7.4, 137 mM NaCl, 10 mM Phosphate, 2.7 mM KCl, SIGMA-ALDRICH Co., USA), and then washed three times with 0.1% PBST (0.1% Tween 20, pH 7.4, 137 mM NaCl, 10 mM Phosphate, 2.7 mM KCl, SIGMA-ALDRICH Co., USA) for 10 minutes. Then, the anti-DR4, -DR5 and -TNFα Kringle domain variants were bound, and washed three times with 0.1% PBST for 10 minutes. The anti-DR4, -DR5 and -TNFα Kringle domain variants were primarily bound to mouse-derived anti-c-myc 9e10 mAb (Ig Therapy, Korea), and secondarily bound to alkaline phosphatase (AP)-conjugated anti-mouse mAb (Sigma). Each of the Kringle domain variants was reacted with […] (pNPP, Sigma-aldrich Co., USA) and quantified at an absorbance of 405 nm.

[2] = biological target: T2, TNFα, extracellular domain (amino acid residue 1-157), 6xHis tag (human, UniProt P01375 57-233); test: as above
T2 construct: extracellular domain; Expressed in E. coli; The printed residues 1-157 seem to count on the soluble form, not on the precursor; also called human TNFα; tumor necrosis factor alpha
T2 sequence (P01375 other isoform, or with tags, fused parts or gaps limits assumed): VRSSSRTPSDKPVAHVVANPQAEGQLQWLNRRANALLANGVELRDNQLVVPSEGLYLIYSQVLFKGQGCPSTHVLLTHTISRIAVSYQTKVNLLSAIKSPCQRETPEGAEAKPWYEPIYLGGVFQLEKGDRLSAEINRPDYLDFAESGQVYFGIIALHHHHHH
Protocol: as §1

DcR1 [3] = biological target: T3, DcR1 (UniProt O14798 26-221, limits assumed); test: as above
T3 sequence (looked up): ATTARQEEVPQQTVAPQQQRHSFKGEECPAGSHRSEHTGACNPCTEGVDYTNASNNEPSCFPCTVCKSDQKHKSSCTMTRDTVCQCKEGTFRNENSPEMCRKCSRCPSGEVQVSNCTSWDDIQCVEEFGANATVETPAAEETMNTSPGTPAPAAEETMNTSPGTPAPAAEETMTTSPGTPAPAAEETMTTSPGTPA
Protocol: as §1

DcR2 = biological target: T4, DcR2 (UniProt Q9UBN6 56-211, limits assumed); test: as above
T4 sequence (looked up): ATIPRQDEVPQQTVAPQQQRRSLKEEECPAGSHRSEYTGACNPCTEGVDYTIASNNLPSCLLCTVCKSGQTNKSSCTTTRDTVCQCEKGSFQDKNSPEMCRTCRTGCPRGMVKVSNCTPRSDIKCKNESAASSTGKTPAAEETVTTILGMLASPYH
Protocol: as §1

[4] = biological target: T1, human-derived cell death receptor 4, …; test: ELISA, coated DR4, A405
[5] = biological target: T5, human-derived cell death receptor 5, extracellular domain (amino acid residues 1-130), 6xHis tag (human, UniProt O14763 56-210); test: ELISA, coated DR5, A405
T5 construct: extracellular domain; Expressed in E. coli; biotinylated for sorting and flow cytometry; also called DR5; TRAIL-receptor 2

[6] = biological target: T1, human-derived cell death receptor 4, …; test: sandwich ELISA: DR4 coated, binder titrated, soluble DR5 detected, A405
cell surface DR5 = cell surface DR5 (human, UniProt O14763 56-440); test: cell-based or functional assay
[7] = biological target: T5, human-derived cell death receptor 5, …; test: ELISA, coated target, A405
Protocol: as §1

[8] = biological target: T5, human-derived cell death receptor 5, …; test: ELISA, coated target, A405; remark: listed apart in the source
Protocol: as §1

[9] = biological target: T5, human-derived cell death receptor 5, …; test: ELISA on coated DR5, KD548 alone, A405
[10] = biological target: T5, human-derived cell death receptor 5, …; test: ELISA on coated DR5, KD548 alone, A405; remark: listed apart in the source
[11] = biological target: T5, human-derived cell death receptor 5, …; test: ELISA, coated target, A405 [lower panel]
Protocol: as §1

[12] = biological target: T1, human-derived cell death receptor 4, …; test: yeast display, flow cytometry MFI [panel KD548]
[13] = biological target: T5, human-derived cell death receptor 5, …; test: competitive ELISA on coated DR5, biotinylated KD548 with KD506 (amount not given), A405
cell surface DR4 = cell surface DR4 (human, UniProt O00220 24-468); test: cell-based or functional assay
[14] = biological target: T1, human-derived cell death receptor 4, …; test: ELISA, coated target, A405
Protocol: as §1, with “The anti-DR4, -DR5 and -TNFα Kringle domain variants were primarily bound to mouse-derived anti-c-myc 9e10 mAb (Ig Therapy, Korea), and secondarily bound to alkaline phosphatase (AP)-conjugated anti-mouse mAb (Sigma).” left out
In order to analyze the affinities of the Fc-fused anti-DR4, -DR5 and -TNFα Kringle domains to target molecules, the affinities of the Fc-fused anti-DR4, -DR5 and -TNFα Kringle domains to the target molecules were analyzed using ELISA, as described in Example 8.

[15] = biological target: T1, human-derived cell death receptor 4, …; test: ELISA, coated target, A405; remark: listed apart in the source
[16] = biological target: T1, human-derived cell death receptor 4, …; test: ELISA on coated DR4, KD413 alone, A405
[17] = biological target: T1, human-derived cell death receptor 4, …; test: ELISA on coated DR4, KD413 alone, A405; remark: listed apart in the source
[18] = biological target: T1, human-derived cell death receptor 4, …; test: ELISA, coated target, A405 [upper panel]
Protocol: as §1

DcR1 [19] = biological target: T3, DcR1; test: yeast display, flow cytometry MFI [panel KD413]
[20] = biological target: T1, human-derived cell death receptor 4, …; test: competitive ELISA on coated DR4, biotinylated KD413 with TRAIL (amount not given), A405
[21] = biological target: T1, human-derived cell death receptor 4, …; test: competitive ELISA on coated DR4, biotinylated KD413 with KD415 (amount not given), A405
[22] = biological target: T1, human-derived cell death receptor 4, …; test: ELISA, coated target, A405; remark: listed apart in the source
Protocol: as §1

[23] = biological target: T1, human-derived cell death receptor 4, …; test: ELISA on coated DR4, KD415 alone, A405
[24] = biological target: T1, human-derived cell death receptor 4, …; test: ELISA, coated target, A405 [lower panel]
Protocol: as §1

[25] = biological target: T1, human-derived cell death receptor 4, …; test: competitive ELISA on coated DR4, biotinylated KD415 with TRAIL (amount not given), A405

B1: PgnKD2 (other, human, UniProt P00747 184-262, looked up)
single chain: ECMHCSGENYDGKISKTMSGLECQAWDSQSPHAHGYIPSKFPNKNLKKNYCRNPDRELRPWCFTTDPNKRWELCDIPRC
notes: isolated Kringle domain 2; negative control; also called wild-type plasminogen Kringle domain 2
[1]
  binding result: no binding
[2]
  binding result: no binding
DcR1 [3]
  binding result: no binding
DcR2
  binding result: no binding

B2: KD413-KD506 hetero-dimer (designed binder, not shown: small tags and cut ends)
chain: CAKAEGTGYDGHEHKTHKGIRCQNWYKSKPHYHGHQFRDGDKIKNKKNYCRNPDPRAGPWCFTHGNRNRYELCNQPRCGGGGSGGGGSGGGGSGGGGSCPEDRGHEYDGDGDKTNRGHGCQYWDQNKPHHHGHRDKDKFKHRIKKNYCRNPDYETGPWCFTNRYRNKNELCHEPRC
[4]
  EC50 (read off the curve): ~300 nM
[5]
  EC50 (read off the curve): ~200 nM
[6]
  EC50 (read off the curve): ~200 nM

B3: KD548 (designed binder)
chain: CHQTQGPKYDGNKDKTHKGHKCQSWTKNRPHHHGNKIENEDENRFQKNYCRNPDNKHEPWCFTHGHRDKHELCHEPRC
notes: Soluble monomer from Pichia pastoris; also called anti-DR5 Kringle domain variant KD548; not shown: C-terminal myc tag-6xHis tag of pPICZaA
Cell surface DR5
  EC50 (a concentration of protein causing a 50% cell death), HL60, MTT assay: 260 nM
[7]
  EC50 (read off the curve): ~600 nM
[8]
  EC50 (read off the curve): ~200 nM
[9]
  EC50 (read off the curve): ~900 nM
[10]
  EC50 (read off the curve): ~600 nM
[11]
  EC50 (read off the curve): ~200 nM
[12]
  binding result: binds
[13]
  EC50 (read off the curve): ~600 nM

B4: KD413 (designed binder)
chain: CAKAEGTGYDGHEHKTHKGIRCQNWYKSKPHYHGHQFRDGDKIKNKKNYCRNPDPRAGPWCFTHGNRNRYELCNQPRC
notes: Soluble monomer from Pichia pastoris; also called anti-DR4 Kringle domain variant KD413; not shown: C-terminal myc tag-6xHis tag of pPICZaA
Cell surface DR4
  EC50 (a concentration of protein causing a 50% cell death), Jurkat, MTT assay: 90 nM
[4]
  EC50 (read off the curve): ~200 nM
[14]
  EC50 (read off the curve): ~100 nM
[15]
  EC50 (read off the curve): ~100 nM
[16]
  EC50 (read off the curve): ~800 nM
[17]
  EC50 (read off the curve): ~200 nM
[18]
  EC50 (read off the curve): ~200 nM
DcR1 [19]
  binding result: no binding
DcR2
  binding result: no binding
[20]
  EC50 (read off the curve): ~800 nM
[21]
  EC50 (read off the curve): ~400 nM

B5: KD415 (designed binder)
chain: CTRSKGDEYDGHKHKTNRGLRCQHWPGTKPHFHGDKIKDRHGFRLKKNYCRNPDPQDQPWCFTNRHQHKNELCNQPRC
notes: Soluble monomer from Pichia pastoris; also called anti-DR4 Kringle domain variant KD415; not shown: C-terminal myc tag-6xHis tag of pPICZaA
Cell surface DR4
  EC50 (a concentration of protein causing a 50% cell death), HL60, MTT assay: 130 nM
  EC50 (a concentration of protein causing a 50% cell death), Jurkat, MTT assay: 200 nM
[22]
  EC50 (read off the curve): ~300 nM
[15]
  EC50 (read off the curve): ~300 nM
[23]
  EC50 (read off the curve): ~200 nM
[24]
  EC50 (read off the curve): ~300 nM
DcR1 [3]
  binding result: no binding
DcR2
  binding result: no binding
[25]
  EC50 (read off the curve): ~200 nM
